Data set [1] addresses T1, CD109 (endogenous, 5-8F cells) (UniProt Q6YHK3).
T1 sequence: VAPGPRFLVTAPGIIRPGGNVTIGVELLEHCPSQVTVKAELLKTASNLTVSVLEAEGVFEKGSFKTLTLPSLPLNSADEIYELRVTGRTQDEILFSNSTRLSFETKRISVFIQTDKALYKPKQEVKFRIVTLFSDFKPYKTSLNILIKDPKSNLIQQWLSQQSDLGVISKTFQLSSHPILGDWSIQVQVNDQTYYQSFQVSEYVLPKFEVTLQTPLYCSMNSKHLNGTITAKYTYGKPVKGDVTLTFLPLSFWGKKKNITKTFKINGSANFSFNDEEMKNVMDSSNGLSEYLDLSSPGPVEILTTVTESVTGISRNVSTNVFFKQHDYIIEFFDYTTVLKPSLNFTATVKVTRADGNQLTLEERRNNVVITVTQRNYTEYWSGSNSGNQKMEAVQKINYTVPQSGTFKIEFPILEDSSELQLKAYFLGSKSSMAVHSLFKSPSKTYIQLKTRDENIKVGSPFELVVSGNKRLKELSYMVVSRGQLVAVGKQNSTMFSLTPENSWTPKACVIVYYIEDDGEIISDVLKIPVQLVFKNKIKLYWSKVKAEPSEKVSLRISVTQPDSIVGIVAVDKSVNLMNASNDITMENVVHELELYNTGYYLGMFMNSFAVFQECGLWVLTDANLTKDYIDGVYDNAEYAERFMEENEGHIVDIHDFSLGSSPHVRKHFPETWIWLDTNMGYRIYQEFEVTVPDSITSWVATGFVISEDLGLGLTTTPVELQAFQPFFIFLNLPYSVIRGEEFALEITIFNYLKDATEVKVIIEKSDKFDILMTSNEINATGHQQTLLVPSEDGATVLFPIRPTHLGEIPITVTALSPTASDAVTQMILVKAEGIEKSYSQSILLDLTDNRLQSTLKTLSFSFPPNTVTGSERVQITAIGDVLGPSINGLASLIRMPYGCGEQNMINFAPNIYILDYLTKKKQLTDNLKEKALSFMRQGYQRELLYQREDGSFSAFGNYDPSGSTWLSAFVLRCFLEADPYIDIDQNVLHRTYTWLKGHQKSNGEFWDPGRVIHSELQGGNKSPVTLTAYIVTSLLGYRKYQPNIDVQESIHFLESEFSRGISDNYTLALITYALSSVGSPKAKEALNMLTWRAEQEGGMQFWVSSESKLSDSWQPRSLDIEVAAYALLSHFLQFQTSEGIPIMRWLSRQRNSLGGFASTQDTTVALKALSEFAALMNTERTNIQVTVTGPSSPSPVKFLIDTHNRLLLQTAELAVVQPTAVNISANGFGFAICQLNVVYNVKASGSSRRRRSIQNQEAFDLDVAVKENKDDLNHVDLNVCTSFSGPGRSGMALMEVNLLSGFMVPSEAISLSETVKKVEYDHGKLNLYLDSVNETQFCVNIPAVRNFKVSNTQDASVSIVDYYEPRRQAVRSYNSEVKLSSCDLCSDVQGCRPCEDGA
The experiment in a line: flow cytometry. Conditions: whole 5-8F cells, on ice, 10% FBS, library background subtracted, Cells: D-PBS (Ca/Mg-free) + 4.5 g/L glucose, 5 mM MgCl2, 0.1 mg/mL yeast tRNA, 1 mg/mL BSA, on ice 0.5 h, EMSA: binding buffer, 4 C, 5% native PAGE in …. (In general: A flow cytometer gives signals particle by particle.)

Data set [2] concerns the target CD109 (recombinant) (Homo sapiens, UniProt Q6YHK3 22-1420). The experiment in a line: EMSA; 4 C; Cells: D-PBS (Ca/Mg-free) + 4.5 g/L glucose, 5 mM MgCl2, 0.1 mg/mL yeast tRNA, 1 mg/mL BSA, 10% FBS, on ice 0.5 h; EMSA: binding buffer, 4 C, 5% native PAGE in. Conditions: protein: commercial; label: FAM. Background: Mobility shift assays separate free from complexed probe on a gel.

With “ATCCAGAGTGACGCAGCATCTGAGAATAGTGGTTTGCTGTATGGTGGGCGTTGAAAGAGGGGTGGACACGGTGGCTTAGT [S3 (FITC-labeled)]”, the Kd (usually the constant that tells how readily two partners part at equilibrium) in data set [1] is 11.9 nM.

B1: S3 (FAM-labeled) (ssDNA)
DNA: ATCCAGAGTGACGCAGCATCTGAGAATAGTGGTTTGCTGTATGGTGGGCGTTGAAAGAGGGGTGGACACGGTGGCTTAGT
For B1, the binding result in data set [2] is reported as “binds”.

The values are drawn from publication PMC5342420, “CD109 is identified as a potential nasopharyngeal carcinoma biomarker using aptamer selected by cell-SELEX”.
